Measurements taken from PMC8789855, “Ion currents through Kir potassium channels are gated by anionic lipids” (Nature Communications, 2022).
Residue numbers refer to the chain shown, from its start. Names may count otherwise.

What was measured:
KirBac3.1-SCS [1] = target: T1, KirBac3.1-SCS (Paramagnetospirillum magnetotacticum, UniProt D9N164, C71S/C262S); assay: ACMA liposome K+ flux assay; single-channel recording; PEGylation gel shift; format: biochemical; conditions: covalent, at Cys119 near fenestration; activator; pH 8.5 (flux assay)
T1 construct: prokaryotic Kir channel, native Cys119 kept as only cysteine, expressed in E. coli C41(DE3), Co2+ IMAC, homotetramer, reconstituted in liposomes or bilayers; PDB 6O9U is the native parent, 7N9L/7N9K are SCS and SCS-L124M
T1 sequence (D9N164 1-295 C71S/C262S): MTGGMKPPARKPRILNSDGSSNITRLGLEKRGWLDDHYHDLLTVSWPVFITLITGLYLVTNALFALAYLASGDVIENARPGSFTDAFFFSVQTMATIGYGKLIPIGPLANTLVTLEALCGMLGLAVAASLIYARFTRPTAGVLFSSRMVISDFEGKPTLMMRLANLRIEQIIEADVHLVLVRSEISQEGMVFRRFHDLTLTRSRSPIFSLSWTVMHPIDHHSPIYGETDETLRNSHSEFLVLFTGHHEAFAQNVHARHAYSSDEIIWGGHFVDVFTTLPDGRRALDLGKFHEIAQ

KirBac3.1-SCS [2] = target: T1, KirBac3.1-SCS; assay: single-channel recording in planar lipid bilayer; format: biochemical; conditions: covalent, at Cys119 near fenestration; pH 7.4, 23 C, -80 mV
[3] = target: the molecule itself; assay: native MS; 200 mM ammonium acetate pH 8.0, 0.5% C8E4 (2x CMC); modified Q-Exactive
[4] = target: the molecule itself; assay: SEC; Superdex 200 10/30 in 20 mM TRIS pH 8.0, 150 mM KCl, 0.02% (w/v) DDM; fractions of the tetramer collected
[5] = target: the molecule itself; assay: crystal structure; sitting drops, vapour diffusion, 4 mg/ml protein; PEG 4,000, PEG 8000, PEG 400, 90 mM HEPES pH 7.5, 1 mM TCEP and 50 mM EDTA or 10 mM CaCl2

## CCCCCCCCCCSS(C)(=O)=O [decyl-MTS]
KirBac3.1-SCS [1]
  ACMA liposome K+ flux assay; single-channel recording; PEGylation gel shift: bound decyl chains (C119-decyl) increased activity relative to wild type

## CCCCCCCCSS(C)(=O)=O [octyl MTS-reagent (C119-octyl)]
KirBac3.1-SCS [2]
  single-channel recording in planar lipid bilayer: channels derivatised with one of three MTS-reagents to titrate the effect of chain length

B1: KirBac3.1 (wild type prokaryotic Kir channel) (natural protein)
chain: T1 sequence (D9N164 1-295 C71S/C262S) with S71C, S262C
notes: KirBac3.1, prokaryotic inward rectifier K+ channel; Co-purifies with phospholipids (PG, PE); also called native KirBac3.1; wild type KirBac3.1; source: E. coli C41(DE3), purified (Co2+ IMAC, Superdex 200 SEC, in DDM)
[3]
  stoichiometry N: 4

B2: KirBac3.1-SCS derivatised with decyl-MTS at Cys119 (natural protein)
chain: T1 sequence (D9N164 1-295 C71S/C262S)
modifications: decyl chain from decyl-methylthiosulfonate on Cys119
notes: KirBac3.1 on the otherwise cysteine-less SCS background (C71S-C262S), native Cys119 kept and derivatised; also called C119-decyl; source: E. coli C41(DE3), purified, reacted with decyl-MTS, re-purified by SEC
[4]
  binding result: binds

B3: KirBac3.1-SCS derivatised with hexyl-MTS at Cys119 (natural protein)
chain: T1 sequence (D9N164 1-295 C71S/C262S)
modifications: hexyl chain from hexyl-methylthiosulfonate on Cys119
notes: KirBac3.1 on the otherwise cysteine-less SCS background (C71S-C262S), native Cys119 kept and derivatised; also called C119-hexyl; source: E. coli C41(DE3), purified, reacted with hexyl-MTS, re-purified by SEC
[4]
  binding result: binds

B4: KirBac3.1-SCS (C71S-C262S background) (natural protein)
chain: T1 sequence (D9N164 1-295 C71S/C262S)
notes: KirBac3.1 with two native cysteines mutated to serine; Mutant cDNA bought from Genscript; source: E. coli C41(DE3), purified (Co2+ IMAC, Superdex 200 SEC, in DDM)
[5]
  binding result: binds

B5: KirBac3.1 L124M (on the C71S-C262S background) (natural protein)
chain: T1 sequence (D9N164 1-295 C71S/C262S) with L124M
notes: KirBac3.1 with L124M on the SCS (C71S-C262S) background; Mutant cDNA bought from Genscript; also called Leu124M; source: E. coli C41(DE3), purified (Co2+ IMAC, Superdex 200 SEC, in DDM)
[5]
  binding result: binds
